T1: recombinant human 5T4 protein (human, UniProt Q13641 32-355)
T1 construct: The ELISA protein was bought (Sino biologics and Biorbyt); also called recombinant 5T4 protein; trophoblast glycoprotein (TPBG)
T1 sequence: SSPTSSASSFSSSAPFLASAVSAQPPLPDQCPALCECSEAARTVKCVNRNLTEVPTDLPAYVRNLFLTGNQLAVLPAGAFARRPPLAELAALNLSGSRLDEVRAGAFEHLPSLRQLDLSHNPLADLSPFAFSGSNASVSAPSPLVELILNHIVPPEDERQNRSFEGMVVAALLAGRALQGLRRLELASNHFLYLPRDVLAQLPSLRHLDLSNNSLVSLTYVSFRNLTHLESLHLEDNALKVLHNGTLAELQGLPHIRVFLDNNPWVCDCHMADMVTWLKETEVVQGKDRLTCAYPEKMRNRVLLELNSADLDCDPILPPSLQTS

T2: 5T4 (Homo sapiens, UniProt Q13641)
T2 sequence (Q13641 32-420): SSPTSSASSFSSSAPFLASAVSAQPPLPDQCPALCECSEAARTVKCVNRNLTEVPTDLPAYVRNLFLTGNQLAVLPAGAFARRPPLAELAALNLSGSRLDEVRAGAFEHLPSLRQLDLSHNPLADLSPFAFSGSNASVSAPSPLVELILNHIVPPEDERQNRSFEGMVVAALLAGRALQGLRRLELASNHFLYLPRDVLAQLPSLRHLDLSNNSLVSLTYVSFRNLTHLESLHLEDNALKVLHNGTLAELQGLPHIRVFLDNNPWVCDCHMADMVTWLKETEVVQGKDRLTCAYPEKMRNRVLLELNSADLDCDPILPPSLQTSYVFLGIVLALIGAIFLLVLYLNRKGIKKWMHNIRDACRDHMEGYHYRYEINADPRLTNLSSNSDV

B1: Bs3-HL biparatopic anti-5T4 antibody (Bs3 orientation, scFv in the VH-VL orientation) (bispecific antibody, human IgG1, kappa)
heavy: QVQLVQSGAEVKKPGASVKVSCKASGYSFTDYYMHWVRQAPGQGLEWMGRVSPNNGATNTNQKFKDRVTMTRDTSISTAYMELRSLRSEDTAVYYCARSTMITSYYFDYWGQGTLVTVSSASTKGPSVFPLAPSSKSTSGGTAALGCLVKDYFPEPVTVSWNSGALTSGVHTFPAVLQSSGLYSLSSVVTVPSSSLGTQTYICNVNHKPSNTKVDKRVEPKSCDKTHTCPPCPAPEFLGGPCVFLFPPKPKDTLMISRTPEVTCVVVDVSHEDPEVKFNWYVDGVEVHNAKTKPREEQYNSTYRVVSVLTVLHQDWLNGKEYKCKVSNKALPAPIEKTISKAKGQPREPQVYTLPPSREEMTKNQVSLTCLVKGFYPSDIAVEWESNGQPENNYKTTPPVLDSDGSFFLYSKLTVDKSRWQQGNVFSCSVMHEALHAHYTQKSLSLSPGKGGGGSGGGGSGGGGSEVQLLESGGGLVQPGGSLRLSCAASGFDFSRYWMTWVRQAPGKCLEWVSEINPDSRTINYTPSLKDRFTISRDNAKNTLYLQMNSLRAEDTAVYYCARPDHDYNPYYFNYWGQGTTVTVSSGGGGSGGGGSGGGGSGGGGSDIVLTQSPASLAVSLGQRATISCRPSQSVSTSSNSYIHWYQQKPGQPPKLLIKYASNLESGVPARFSGSGSGTDFTLTISPVEAEDTATYYCQQSWEIPLTFGCGTKLEIK
light: DIVMTQSPSFLSVSVGDRVTITCKASQSVSTDVAWYQQKPGQAPKLLIYFASDRYTGVPDRFSGSGSGTDFTFTISSLQAEDVAVYYCQQDYSSPPTFGGGTKLEIKRTVAAPSVFIFPPSDEQLKSGTASVVCLLNNFYPREAKVQWKVDNALQSGNSQESVTEQDSKDSTYSLSSTLTLSKADYEKHKVYACEVTHQGLSSPVTKSFNRGEC
notes: The heavy chain is Ab1 heavy chain (IgG1), linker, then Ab2 scFv (VH-linker-VL); Bs3-HL is described as the form without FCA, so its real Fc may have L, S and N at those positions; also called bispecific antibody in the Bs3-HL orientation; Bispecific 5T4-BS3 antibody
B2: Bs3-HL biparatopic anti-5T4 antibody conjugated to MMAE (Example 4) (bispecific antibody, human IgG1, kappa)
heavy: QVQLVQSGAEVKKPGASVKVSCKASGYSFTDYYMHWVRQAPGQGLEWMGRVSPNNGATNTNQKFKDRVTMTRDTSISTAYMELRSLRSEDTAVYYCARSTMITSYYFDYWGQGTLVTVSSASTKGPSVFPLAPSSKSTSGGTAALGCLVKDYFPEPVTVSWNSGALTSGVHTFPAVLQSSGLYSLSSVVTVPSSSLGTQTYICNVNHKPSNTKVDKRVEPKSCDKTHTCPPCPAPEFLGGPCVFLFPPKPKDTLMISRTPEVTCVVVDVSHEDPEVKFNWYVDGVEVHNAKTKPREEQYNSTYRVVSVLTVLHQDWLNGKEYKCKVSNKALPAPIEKTISKAKGQPREPQVYTLPPSREEMTKNQVSLTCLVKGFYPSDIAVEWESNGQPENNYKTTPPVLDSDGSFFLYSKLTVDKSRWQQGNVFSCSVMHEALHAHYTQKSLSLSPGKGGGGSGGGGSGGGGSEVQLLESGGGLVQPGGSLRLSCAASGFDFSRYWMTWVRQAPGKCLEWVSEINPDSRTINYTPSLKDRFTISRDNAKNTLYLQMNSLRAEDTAVYYCARPDHDYNPYYFNYWGQGTTVTVSSGGGGSGGGGSGGGGSGGGGSDIVLTQSPASLAVSLGQRATISCRPSQSVSTSSNSYIHWYQQKPGQPPKLLIKYASNLESGVPARFSGSGSGTDFTLTISPVEAEDTATYYCQQSWEIPLTFGCGTKLEIK
light: DIVMTQSPSFLSVSVGDRVTITCKASQSVSTDVAWYQQKPGQAPKLLIYFASDRYTGVPDRFSGSGSGTDFTFTISSLQAEDVAVYYCQQDYSSPPTFGGGTKLEIKRTVAAPSVFIFPPSDEQLKSGTASVVCLLNNFYPREAKVQWKVDNALQSGNSQESVTEQDSKDSTYSLSSTLTLSKADYEKHKVYACEVTHQGLSSPVTKSFNRGEC
modifications: monomethyl auristatin E (MMAE) conjugated; attachment residues, chain and drug-to-antibody ratio not stated for this experiment
notes: Antibody-drug conjugate of Bs3-HL; also called bispecific antibody in the Bs3-HL orientation conjugated to MMAE; bispecific antibody with conjugated MMAE
B3: humanized antibody No. 1 ((h)Ab1) (antibody, V domains shown)
VH: QVQLVQSGAEVKKPGASVKVSCKASGYSFTDYYMHWVRQAPGQGLEWMGRVSPNNGATNTNQKFKDRVTMTRDTSISTAYMELRSLRSEDTAVYYCARSTMITSYYFDYWGQGTLVTVSS
VL: DIVMTQSPSFLSVSVGDRVTITCKASQSVSTDVAWYQQKPGQAPKLLIYFASDRYTGVPDRFSGSGSGTDFTFTISSLQAEDVAVYYCQQDYSSPPTFGGGTKLEIK
notes: The FcγR assay calls it 'without Fc mutations'; also called humanized Ab1; humanized monospecific antibody Ab1
B4: mouse antibody No. 1 ((m)Ab1) (antibody, V domains shown)
VH: EVQLQQSGPDLVKPGASVKISCKASGYSFTDYYMHWVKQSHGKSLEWIGRVSPNNGATNTNQKFKDKAILTVDKSSSTAYMDLRSLTSEDSAVYYCARSTMITSYYFDYWGQGTTLTVSS
VL: SIVMTQTPKFLLVSAGDRITITCKASQSVSTDVAWYQQKPGQSPKLLIYFASDRYTGVPDRFTGSGNGTDFTFTITTVQAEDLAIYFCQQDYSSPPTFGGGTKLEIK
notes: Mouse IgG, captured by anti-mouse IgG antibodies; also called mouse Ab1; mouse monospecific antibody Ab1
B5: mouse antibody No. 2 ((m)Ab2) (antibody, V domains shown)
VH: EVKLLESGGGLVQPGGSLKLSCAASGFDFSRYWMTWVRQAPGKGLEWIGEINPDSRTINYTPSLKDKFIISRDNAKNTLYLHMSKVRSEDTALYYCARPDHDYNPYYFNYWGQGTTLTVSS
VL: DIVLTQSPASLAVSLGQRATISCRPSQSVSTSSNSYIHWYQQKPGQPPKLLIKYASNLESGVPARFSGSGSGTDFTLNIHPVEEEDTATYYCQQSWEIPLTFGAGTKLELK
notes: Mouse IgG; also called mouse Ab2; mouse monospecific antibody Ab2
B6: humanized antibody No. 2 ((h)Ab2) (antibody, V domains shown)
VH: EVQLLESGGGLVQPGGSLRLSCAASGFDFSRYWMTWVRQAPGKGLEWVSEINPDSRTINYTPSLKDRFTISRDNAKNTLYLQMNSLRAEDTAVYYCARPDHDYNPYYFNYWGQGTTVTVSS
VL: DIVLTQSPASLAVSLGQRATISCRPSQSVSTSSNSYIHWYQQKPGQPPKLLIKYASNLESGVPARFSGSGSGTDFTLTISPVEAEDTATYYCQQSWEIPLTFGGGTKLEIK
notes: also called humanized Ab2; humanized monospecific antibody Ab2

Key:
[1] = molecular target: T1, recombinant human 5T4 protein; assay: SPR (Biacore 8K), antibody captured on Protein A chip, 5T4 as analyte 0.625-10 nM, 1:1 model
Protocol: (§1) The binding affinity of anti-5T4 bispecific antibody-drug conjugate monospecific and bispecific antibodies to 5T4 was measured by Biacore kinetic experiments using a Protein A sensor chip on Biacore 8K (Cytiva) with HBS-EP+ as running buffer. […] After each binding cycle, the sensor chip was regenerated with glycine solution, pH 1.5. Signals from reference surface and an ensemble of buffer blank injections were subtracted from binding signals to correct for nonspecific binding and injection artifacts. The corrected experimental signals were globally fitted to a 1:1 binding model to extract kinetic constants, including association rate constant (ka), dissociation rate constant (kd), and equilibrium dissociation constant (KD), using the Biacore 8K Evaluation Software.

[2] = molecular target: T1, recombinant human 5T4 protein; assay: SPR (Biacore 8K): antibody captured on a protein A chip, 5T4 protein injected at 0.625-10 nM, 1:1 binding model; FIG. 4C on D00005 prints the same value as 7.42e-11
Protocol: as §1

[3] = molecular target: T1, recombinant human 5T4 protein; assay: SPR (Biacore 8K, optimized assay): antibody captured on a protein A chip, recombinant 5T4 injected at 0.02-5 µg/mL, one-to-one binding model
Protocol: (§2) SPR kinetic experiments were performed on Biacore 8K systems (GE healthcare) with HBS-EP+ as running buffer. […] Capture level for each antibody was maintained between 50-100 RU. The final analyte binding level at the highest concentration was maintained below 50 RU. […] After each binding cycle, the sensor chip was regenerated with glycine solution (pH 1.5). The resulting sensorgrams were fitted with a one-to-one binding model to extract kinetic constants using Biacore 8K Evaluation Software.

[4] = molecular target: T1, recombinant human 5T4 protein; assay: SPR (Biacore 8K): antibody captured on a protein A chip, 5T4 protein injected at 0.625-10 nM, 1:1 binding model
Protocol: as §1

FcγRIIIa (158V) = FcγRIIIa (158V) (UniProt P08637); assay: SPR (Biacore 8K), antibody captured on Protein A chip, Fc receptor as analyte, 1:1 model
FcγRI (Abcam) = FcγRI (Abcam) (UniProt P12314); assay: as above
[5] = molecular target: T1, recombinant human 5T4 protein; assay: optimized SPR (Biacore 8K), antibody captured on Protein A chip, recombinant 5T4 as analyte 0.02 to 5 µg/mL, 1:1 model
Protocol: as §2

5T4 = molecular target: T2, 5T4; assay: Non-overlapping epitope binding assay (SPR); details: mouse antibody captured, 5T4 injected, then humanized antibody
Protocol: To examine epitope binding of anti-5T4 bispecific antibody-drug conjugate parental monospecific antibodies, surface plasmon resonance (SPR) binding experiments were performed using Biacore™ 8K systems (Cytiva™). HBS-EP+ buffer (10 mM HEPES, 150 mM NaCl, 3 mM EDTA and 0.05% v/v Surfactant P20) was used as running buffer. Anti-mouse IgG antibodies from the mouse antibody capture kit (Cytiva) were coupled in active flow cells on a CM5 sensor chip using an amine coupling kit (Cytiva), whereas the reference cell was left blank. As the first step, mouse monospecific antibody Ab1 or Ab2 was injected over both cells on all experimental channels. Second, test article 5T4 or buffer was injected over both cells on the corresponding channel. Third, humanized monospecific antibody Ab1 or Ab2, or buffer, was injected over both cells on all experimental channels. After each binding cycle, the sensor chip was regenerated with 10 mM Glycine-HCl pH1.7. SPR signals (RU) were recorded in real-time and plotted against time to generate binding sensorgrams. Sensorgrams from multiple channels were overlaid using Biacore 8K Evaluation Software.
To confirm the non-overlapping epitope binding of the select monospecific antibody Nos. 1 and 2, a surface plasmon resonance (SPR) technology-based binding assay was performed. […]

FcγRI (Abcam), sequence (P12314 16-288 limits assumed): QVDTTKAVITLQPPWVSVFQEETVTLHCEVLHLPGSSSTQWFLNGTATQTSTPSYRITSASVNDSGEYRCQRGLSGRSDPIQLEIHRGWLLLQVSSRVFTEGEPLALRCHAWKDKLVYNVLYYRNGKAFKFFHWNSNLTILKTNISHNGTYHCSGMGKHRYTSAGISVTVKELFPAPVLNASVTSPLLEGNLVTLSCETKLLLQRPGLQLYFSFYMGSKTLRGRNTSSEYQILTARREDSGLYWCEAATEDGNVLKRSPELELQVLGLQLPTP
FcγRIIIa (158V), sequence (P08637 17-208 F176V): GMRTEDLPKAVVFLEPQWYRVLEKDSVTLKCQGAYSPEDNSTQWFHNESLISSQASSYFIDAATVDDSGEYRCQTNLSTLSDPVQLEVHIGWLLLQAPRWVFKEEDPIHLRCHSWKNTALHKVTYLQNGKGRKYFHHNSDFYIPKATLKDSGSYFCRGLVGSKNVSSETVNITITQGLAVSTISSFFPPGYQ

Molecule | Kd [1] [pM] | Kd [3] [pM] | koff [3] [s⁻¹] | kon [3] [M⁻¹ s⁻¹] | koff [4] [s⁻¹] | kon [4] [M⁻¹ s⁻¹] | Kd [5] [pM] | epitope binding on 5T4 (5T4) | further results
B1 | 742 | 3.63 | – | – | – | – | – | – | Kd [2]: 74.2 pM
B2 | – | 15.9 | 5.99e-06 | 376000 | – | – | – | – | –
B3 | 198 | – | – | – | 0.000248 | 1.25e+06 | – | – | Kd (FcγRIIIa (158V)): 50500 pM; Kd (FcγRI (Abcam)): 3730 pM
B4 | – | – | 0.000421 | 259000 | – | – | 1430 | non-overlapping epitopes | –
B5 | – | – | 0.000273 | 203000 | – | – | 1340 | non-overlapping epitopes | –
B6 | 320 | – | – | – | 0.000283 | 884000 | – | – | –

From US20260124314A1, “ANTl-5T4 ANTIGEN BINDING DOMAINS, ANTIBODY-DRUG CONJUGATES AND METHODS OF USE THEREOF” (Salubris Biotherapeutics, Inc., priority 2023, published 2026)
